Publication PMC4787775, “Molecular basis for the substrate specificity and catalytic mechanism of thymine-7-hydroxylase in fungi” (Nucleic Acids Research, 2015)
Substitutions are numbered along the chain they refer to. Numbers in names are those of the source.

B1: NcT7H (thymine-7-hydroxylase) (Neurospora crassa OR74A; R286A) (protein)
chain: MEKAAVNEDGLVIPLIDFSKFLEGDETLKLETAKAILHGFQTAGFIYLKNIPIQPDFREHVFNTSAKFFKLPKEKKLEVGWTTPEANRGYSAPGREKVTQLTDPAEIEKIRSAAPDIKESYEIGREDEPGHPNPWPAEQDDLVGFKSTMNNFFDQCKALHIEVMRAIAVGMGIDANYFDSFVDVGDNILRLLHYPAVKSEVFKINPGQVRAGEHTDYGSITLLFQDSRGGLQVKSPNGQFIDATPIENTVVVNAGDLLARWSNDTIKSTVHRVVEPPKQEDVHPPAYSIAYFCNPNHKSYIEAIPGTYAAESERKYEGINSGKYLVQRLAATY
notes: full length (residues 1-333), C-terminal His6-tag, pET-28a, expressed in E. coli BL21(DE3); Ni-NTA and gel filtration, tag removal not mentioned
B2: NcT7H (thymine-7-hydroxylase) (Neurospora crassa OR74A; N87A) (protein)
chain: B1 chain with N87A, A286R
notes: as for B1
B3: NcT7H (thymine-7-hydroxylase) (Neurospora crassa OR74A; Y217A) (protein)
chain: B1 chain with Y217A, A286R
notes: as for B1
B4: NcT7H (thymine-7-hydroxylase) (Neurospora crassa OR74A; Y217F) (protein)
chain: B1 chain with Y217F, A286R
notes: as for B1
B5: NcT7H (thymine-7-hydroxylase) (Neurospora crassa OR74A) (protein)
chain: B1 chain with A286R
notes: as for B1
B6: NcT7H (thymine-7-hydroxylase) (Neurospora crassa OR74A; R190K) (protein)
chain: B1 chain with R190K, A286R
notes: as for B1

Assays:
[1] = target: T1, NcT7H (thymine-7-hydroxylase) (Neurospora crassa, UniProt Q7RYZ9); experiment: isothermal titration calorimetry; type: binding
T1 construct: gene NCU06416; full length (residues 1-333), C-terminal His6-tag, pET-28a, expressed in E. coli BL21(DE3); Ni-NTA and gel filtration, tag removal not mentioned
Source text: isothermal titration calorimetry on NcT7H (thymine-7-hydroxylase)

purified protein [2] = substrate: O=c1[nH]cc(CO)c(=O)[nH]1; experiment: purified protein; settings: 1 mM α-KG, 0.2 mM (NH4)2Fe(SO4)2, 0.2 mM ascorbic acid, 100 mM Hepes pH 7.5, 25 °C
purified protein [3] = substrate: Cc1c[nH]c(=O)[nH]c1=O; experiment: purified protein; type: biochemical, Neurospora crassa; settings: 1 mM α-KG, 0.2 mM (NH4)2Fe(SO4)2, 0.2 mM ascorbic acid, 100 mM Hepes pH 7.5, 25 °C
purified protein [4] = substrate: O=Cc1c[nH]c(=O)[nH]c1=O; experiment: purified protein; type: biochemical, Neurospora crassa; settings: 1 mM α-KG, 0.2 mM (NH4)2Fe(SO4)2, 0.2 mM ascorbic acid, 100 mM Hepes pH 7.5, 25 °C

T1 sequence (Q7RYZ9 entry or part of it): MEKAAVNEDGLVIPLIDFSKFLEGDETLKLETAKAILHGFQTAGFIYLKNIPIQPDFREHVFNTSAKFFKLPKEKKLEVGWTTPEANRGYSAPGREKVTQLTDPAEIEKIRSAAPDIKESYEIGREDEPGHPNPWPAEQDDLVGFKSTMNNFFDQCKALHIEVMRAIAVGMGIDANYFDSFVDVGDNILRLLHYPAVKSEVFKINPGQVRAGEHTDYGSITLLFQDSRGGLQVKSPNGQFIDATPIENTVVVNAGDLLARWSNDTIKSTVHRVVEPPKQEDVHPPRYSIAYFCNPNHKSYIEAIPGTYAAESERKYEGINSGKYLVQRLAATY

Molecule	Kd [1] [µM]	Km (purified protein [2]) [µM]	kcat (purified protein [2]) [s⁻¹]	kcat/Km (purified protein [2]) [M⁻¹ s⁻¹]	Km (purified protein [3]) [µM]	kcat (purified protein [3]) [s⁻¹]	kcat/Km (purified protein [3]) [M⁻¹ s⁻¹]	Km (purified protein [4]) [µM]	kcat (purified protein [4]) [s⁻¹]	kcat/Km (purified protein [4]) [M⁻¹ s⁻¹]
Cc1c[nH]c(=O)[nH]c1=O [T]	32 ± 5.24									
O=C(O)CNC(=O)C(=O)O [NOG]	5.35 ± 1.26									
O=C(O)CCC(=O)C(=O)O [α-KG]	34.4 ± 6.63									
O=c1[nH]cc(CO)c(=O)[nH]1 [5hmU]	30.5 ± 5.59									
O=Cc1c[nH]c(=O)[nH]c1=O [5fU]	108 ± 13									
B1		950 ± 114	0.141	150	649 ± 74.1	0.405 ± 0.0215	617			
B2		1065 ± 156	0.0962	83.3	638 ± 128	0.23 ± 0.022	367			
B3					1500 ± 332	0.257 ± 0.0355	167			
B4		247 ± 35.2	0.553	2230	128 ± 18.5	0.542 ± 0.0228	4230	718 ± 213	0.237 ± 0.0352	333
B5		178 ± 16.4	0.325	1830	141 ± 13.4	0.417 ± 0.0123	2950	253 ± 32.2	0.765 ± 0.0357	3020
B6		1016 ± 200	0.0353	33.3	542 ± 64.7	0.055 ± 0.003	100			
